Measurements reported in PMC8888643.

Experiments:
[1] = molecular target: SARS-CoV-2 main protease with the mutations E290A and R298A (MPro^M) (SARS-CoV-2); assay: enzyme kinetics (calculated from rate constants); dimer to monomers (K1); MPro^M, calculated from the slope of rate against [Mo]^2 (Eq. 3) and from k3/Ks found with GC376 (Eq. 6); buffer B, 28 °C
[2] = molecular target: SARS-CoV-2 main protease with the mutations E290A and R298A (MPro^M) (SARS-CoV-2); assay: AUC; sedimentation velocity, 50,000 rpm, 25 °C, buffer A; MPro^M at 18-90 µM, without inhibitor
[3] = molecular target: SARS-CoV-2 main protease with the mutations E290A and R298A (MPro^M) (SARS-CoV-2); assay: AUC; sedimentation velocity, 50,000 rpm, 25 °C, buffer B with 0.1% DMSO; MPro^M at 6-7 µM with GC376 at 1-50 µM
[4] = molecular target: SARS-CoV-2 main protease with the mutations E290A and R298A (MPro^M) (SARS-CoV-2); assay: not stated; 10 µM MPro^M with a 10-fold molar excess of GC376 (100 µM); told with the CD spectra

SARS-CoV-2 main protease with the mutations E290A and R298A (MPro^M) (enzyme)
Kd [1]: 6.6 mM | Kd [2]: > 0.09 mM | free monomer concentration [M] at [Mo] 10 µM and GC376 10 µM [3]: 5e-06 M | stoichiometry N [3]: 2 | percent dimeric with 10-fold molar excess of GC376 [4]: 90%
